Experimental data as given in US20260167710A1.

Experiments:
[1] = target: ST2-his (human) (UniProt Q01638); assay: BLI (Octet RED384), ST2-his on anti-his sensors, IL-33 100 nM, steady state fit, average of n=2; not at equilibrium, for comparison only
[2] = target: ST2-his (human) (UniProt Q01638); assay: BLI (Octet RED384), ST2-his on anti-his sensors, IL-33 pre-mixed with ten-fold excess of 22A06-458 (the complex binds ST2), steady state fit, average of n=2
[3] = target: ST2-his (human) (UniProt Q01638); assay: BLI (Octet RED384), ST2-his on anti-his sensors, IL-33 pre-mixed with the anti IL-33 control antibody (the complex binds ST2), steady state fit, average of n=2

Sequence of ST2-his (human) (Q01638 other isoform, or with tags, fused parts or gaps limits assumed): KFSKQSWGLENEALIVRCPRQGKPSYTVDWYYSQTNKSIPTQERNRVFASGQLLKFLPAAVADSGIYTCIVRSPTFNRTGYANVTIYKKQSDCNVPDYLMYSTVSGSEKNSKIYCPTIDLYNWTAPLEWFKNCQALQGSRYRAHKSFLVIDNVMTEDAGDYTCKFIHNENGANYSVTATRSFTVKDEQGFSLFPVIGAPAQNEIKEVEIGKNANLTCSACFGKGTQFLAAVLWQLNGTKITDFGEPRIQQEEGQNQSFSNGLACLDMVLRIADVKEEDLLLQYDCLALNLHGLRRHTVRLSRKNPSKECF

B1: human IL-33 (ligand, not shown: small tags and cut ends)
chain: ITGISPITEYLASLSTYNDQSITFALEDESYEIYVEDLKKDEKKDKVLLSYYESQHPSNESGDGVDGKMLMVTLSPTKDFWLHANNKEHSVELHKCEKPLPDQAFFVLHNMHSNCVSFECKTDPGVFIGVKDNHLALIKVDSSENLCTENILFKLSET
modifications: Biotinylated in Example 2; the site is not stated.
With B1 the Kd [1] was 7.2 nM, the Kd [2] was 11.5 nM and the Kd [3] was 2.4 nM.
